Laboratory results published in paper PMC8357825, “Structural basis for Ca^2+ activation of the heteromeric PKD1L3/PKD2L1 channel” (Nature Communications, 2021).

B1: mouse PKD2L1 (residues 64–629) (domain or fragment, UniProt A2A259 64-629, looked up)
chain: TLVSSCCLHICRSIRGLWGTTLTENTAENRELYVKTTLRELVVYIVFLVDICLLTYGMTSSSAYYYTKVMSELFLHTPSDSGVSFQTISSMSDFWDFAQGPLLDSLYWTKWYNNQSLGRGSHSFIYYENLLLGAPRLRQLRVRNDSCVVHEDFREDILNCYDVYSPDKEDQLPFGPQNGTAWTYHSQNELGGSSHWGRLTSYSGGGYYLDLPGSRQASAEALQGLQEGLWLDRGTRVVFIDFSVYNANINLFCILRLVVEFPATGGTIPSWQIRTVKLIRYVNNWDFFIVGCEVVFCVFIFYYVVEEILEIHLHRLRYLSSVWNILDLVVILLSIVAVGFHIFRTLEVNRLMGKLLQQPDTYADFEFLAFWQTQYNNMNAVNLFFAWIKIFKYISFNKTMTQLSSTLARCAKDILGFAIMFFIVFFAYAQLGYLLFGTQVENFSTFVKCIFTQFRIILGDFDYNAIDNANRILGPVYFVTYVFFVFFVLLNMFLAIINDTYSEVKEELAGQKDQLQLSDFLKQSYNKTLLRLRLRKERVSDVQKVLKGGEPEIQFEDFTSTLRELG
notes: PKD2L1, mouse, Uniprot A2A259, residues 64-629 (lacks the C-terminal coiled-coil domain); Three copies of this chain (I, II, III) stand with one PKD1L3-CTD in the heterotetramer; It is not clear whether each chain has both tags or one tag each; also called mPKD2L1 (residues 64–629); TRPP2; source: HEK293F, transiently co-transfected with mPKD1L3, purified (anti-Flag M2 resin, Strep-Tactin resin, …)
B2: mouse PKD1L3-CTD (residues 1632–2151) (domain or fragment, UniProt Q2EG98 1632-2151, looked up)
chain: PIYTAPAMNNLAKPTRKAWKKQLSKLTGGTLVQILFLTLLMTTVYSAKDSSRFFLHRAIWKRFSHRFSEIKTVEDFYPWANGTLLPNLYGDYRGFITDGNSFLLGNVLIRQTRIPNDIFFPGSLHKQMKSPPQHQEDRENYGAGWVPPDTNITKVDSIWHYQNQESLGGYPIQGELATYSGGGYVVRLGRNHSAATRVLQHLEQRRWLDHCTKALFVEFTVFNANVNLLCAVTLILESSGVGTFLTSLQLDSLTSLQSSERGFAWIVSQVVYYLLVCYYAFIQGCRLKRQRLAFFTRKRNLLDTSIVLISFSILGLSMQSLSLLHKKMQQYHCDRDRFISFYEALRVNSAVTHLRGFLLLFATVRVWDLLRHHAQLQVINKTLSKAWDEVLGFILIIVVLLSSYAMTFNLLFGWSISDYQSFFRSIVTVVGLLMGTSKHKEVIALYPILGSLLVLSSIILMGLVIINLFVSAILIAFGKERKACEKEATLTDMLLQKLSSLLGIRLHQNPSEEHADNTGY
notes: PKD1L3, mouse, Uniprot Q2EG98, carboxy-terminal domain (TM6-TM11 = S1-S6; VSD, PMD and PD), residues 1632-2151; it is not clear whether each chain has both tags or one tag each; No tag removal is described; also called mPKD1L3 (residues 1632–2151); TRP-like domain; source: HEK293F, transiently co-transfected with mPKD2L1, purified (anti-Flag M2 resin, Strep-Tactin resin, SEC in GDN)

Legend:
Assay in all cases: cryo-EM structure; co-expressed and co-purified PKD1L3-CTD/PKD2L1 complex in 20 mM HEPES pH 7.5, 150 mM NaCl, 0.01% GDN, 0.2% Fos-Choline-8 added; without (apo, 3.4 Å) and with 20 mM CaCl2 (Ca2+-loaded, 3.1 Å)
[1] = target: B2; conditions: both partners purified
[2] = target: the molecule itself
[3] = target: B1; conditions: both partners purified

## B1
[1]
  stoichiometry N: 3 PKD2L1 per PKD1L3
[2]
  binding result: binds

## B2
[3]
  binding result: binds
